Measured values reported in US20200283521A1 (GRANULAR THERAPEUTICS, published 2020).

Key:
Assay in all cases: cell array, transfected fixed HEK293 cells
MS4A1 = target: T1, MS4A1 (human, UniProt P11836)
T1 construct: expressed in transfected HEK293 cells; also called CD20
T1 sequence (looked up): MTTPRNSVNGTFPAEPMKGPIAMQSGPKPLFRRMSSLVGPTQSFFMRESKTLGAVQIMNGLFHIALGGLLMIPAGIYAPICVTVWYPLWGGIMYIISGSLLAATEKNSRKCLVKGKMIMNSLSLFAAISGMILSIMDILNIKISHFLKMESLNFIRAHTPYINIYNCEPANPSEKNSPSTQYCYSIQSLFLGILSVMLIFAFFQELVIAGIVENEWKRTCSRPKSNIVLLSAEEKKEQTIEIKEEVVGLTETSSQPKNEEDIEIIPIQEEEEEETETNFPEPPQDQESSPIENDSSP
Protocol: (§1) Transfection of all plasmids was confirmed by screening for the co-encoded marker ZS green (FIG. 13A).
(§2) Primary hits (duplicate spots) were identified by analysing fluorescence (AF647 and ZsGreenl) on ImageQuant. Vectors encoding all hits were sequenced to confirm their correct identities. […] Slides were analysed as above.

EGFR = target: T2, EGFR (human, UniProt P00533)
T2 construct: expressed in transfected HEK293 cells
Protocol: as §1, §2

SLMAP = target: T3, SLMAP (human, UniProt Q14BN4)
T3 construct: expressed in transfected HEK293 cells
T3 sequence (looked up): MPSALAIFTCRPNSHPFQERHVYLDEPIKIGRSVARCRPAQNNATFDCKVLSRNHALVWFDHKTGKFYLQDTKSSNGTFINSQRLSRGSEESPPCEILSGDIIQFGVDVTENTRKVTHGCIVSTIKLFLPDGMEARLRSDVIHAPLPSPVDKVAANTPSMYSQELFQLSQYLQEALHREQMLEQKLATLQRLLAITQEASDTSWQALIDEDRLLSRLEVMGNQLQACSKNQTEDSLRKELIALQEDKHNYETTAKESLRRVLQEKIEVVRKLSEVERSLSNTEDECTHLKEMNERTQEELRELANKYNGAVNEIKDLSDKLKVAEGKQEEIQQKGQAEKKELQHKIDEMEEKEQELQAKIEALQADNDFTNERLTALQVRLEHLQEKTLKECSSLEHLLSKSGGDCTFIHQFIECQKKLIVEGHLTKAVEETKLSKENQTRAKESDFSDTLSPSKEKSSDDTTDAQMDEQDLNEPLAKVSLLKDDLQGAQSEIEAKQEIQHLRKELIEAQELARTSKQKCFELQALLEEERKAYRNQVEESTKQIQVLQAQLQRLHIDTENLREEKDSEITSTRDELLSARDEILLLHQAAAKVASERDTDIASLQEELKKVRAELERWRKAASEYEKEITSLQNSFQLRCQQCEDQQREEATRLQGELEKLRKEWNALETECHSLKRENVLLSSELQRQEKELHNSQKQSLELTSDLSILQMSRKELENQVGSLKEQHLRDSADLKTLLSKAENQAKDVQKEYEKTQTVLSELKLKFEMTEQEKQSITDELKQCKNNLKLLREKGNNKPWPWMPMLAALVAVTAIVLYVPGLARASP
Protocol: as §1, §2

MSN = target: T4, MSN (human, UniProt P26038)
T4 construct: expressed in transfected HEK293 cells
Protocol: as §1, §2

BAIAP2L2 = target: T5, BAIAP2L2 (human, UniProt Q6UXY1)
T5 construct: expressed in transfected HEK293 cells
T5 sequence (looked up): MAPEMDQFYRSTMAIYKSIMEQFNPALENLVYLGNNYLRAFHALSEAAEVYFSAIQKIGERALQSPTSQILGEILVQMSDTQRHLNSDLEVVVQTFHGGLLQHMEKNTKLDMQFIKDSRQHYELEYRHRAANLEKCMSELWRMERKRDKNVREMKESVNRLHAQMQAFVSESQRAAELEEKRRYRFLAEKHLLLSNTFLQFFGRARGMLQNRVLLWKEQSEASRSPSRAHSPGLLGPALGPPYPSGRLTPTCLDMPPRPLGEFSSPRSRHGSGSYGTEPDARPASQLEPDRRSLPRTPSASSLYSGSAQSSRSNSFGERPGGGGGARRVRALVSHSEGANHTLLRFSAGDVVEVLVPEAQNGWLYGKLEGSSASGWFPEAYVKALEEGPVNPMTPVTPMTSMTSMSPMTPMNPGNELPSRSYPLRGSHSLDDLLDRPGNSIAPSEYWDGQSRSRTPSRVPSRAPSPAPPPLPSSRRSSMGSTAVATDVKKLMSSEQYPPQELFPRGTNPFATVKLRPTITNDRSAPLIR
Protocol: as §1, §2

TGM2 = target: T6, TGM2 (human, UniProt P21980)
T6 construct: expressed in transfected HEK293 cells
T6 sequence (looked up): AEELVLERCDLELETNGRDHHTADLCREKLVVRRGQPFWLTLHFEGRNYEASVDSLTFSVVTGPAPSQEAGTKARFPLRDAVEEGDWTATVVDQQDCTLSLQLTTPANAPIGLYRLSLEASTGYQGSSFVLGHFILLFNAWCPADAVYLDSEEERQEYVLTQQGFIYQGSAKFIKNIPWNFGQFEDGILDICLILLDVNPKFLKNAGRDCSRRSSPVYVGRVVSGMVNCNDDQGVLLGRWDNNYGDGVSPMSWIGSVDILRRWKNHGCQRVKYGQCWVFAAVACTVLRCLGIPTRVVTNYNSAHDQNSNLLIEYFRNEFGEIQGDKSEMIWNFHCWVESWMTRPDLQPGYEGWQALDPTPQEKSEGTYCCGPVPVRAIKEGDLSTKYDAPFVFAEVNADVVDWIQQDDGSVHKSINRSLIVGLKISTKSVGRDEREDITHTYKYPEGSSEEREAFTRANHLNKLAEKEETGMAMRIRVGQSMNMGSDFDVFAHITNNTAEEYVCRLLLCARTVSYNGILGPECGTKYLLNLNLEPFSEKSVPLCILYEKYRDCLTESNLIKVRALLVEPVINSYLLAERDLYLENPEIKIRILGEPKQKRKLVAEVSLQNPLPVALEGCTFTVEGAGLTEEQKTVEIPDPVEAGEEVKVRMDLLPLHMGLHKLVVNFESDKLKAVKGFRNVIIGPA
Protocol: as §1, §2

COL23A1 = target: T7, COL23A1 (human, UniProt Q86Y22)
T7 construct: expressed in transfected HEK293 cells
Protocol: as §1, §2

PPT1 = target: T8, PPT1 (human, UniProt P50897)
T8 construct: expressed in transfected HEK293 cells
T8 sequence (looked up): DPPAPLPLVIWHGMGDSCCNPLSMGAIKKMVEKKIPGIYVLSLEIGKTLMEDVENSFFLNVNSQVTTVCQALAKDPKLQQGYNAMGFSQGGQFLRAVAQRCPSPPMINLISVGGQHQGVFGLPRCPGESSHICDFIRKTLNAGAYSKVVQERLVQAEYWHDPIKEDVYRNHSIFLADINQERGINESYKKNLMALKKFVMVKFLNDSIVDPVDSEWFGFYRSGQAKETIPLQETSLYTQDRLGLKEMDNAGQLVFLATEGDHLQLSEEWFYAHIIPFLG
Protocol: as §1, §2

Measured: binding result

T7 sequence (Q86Y22 whole entry): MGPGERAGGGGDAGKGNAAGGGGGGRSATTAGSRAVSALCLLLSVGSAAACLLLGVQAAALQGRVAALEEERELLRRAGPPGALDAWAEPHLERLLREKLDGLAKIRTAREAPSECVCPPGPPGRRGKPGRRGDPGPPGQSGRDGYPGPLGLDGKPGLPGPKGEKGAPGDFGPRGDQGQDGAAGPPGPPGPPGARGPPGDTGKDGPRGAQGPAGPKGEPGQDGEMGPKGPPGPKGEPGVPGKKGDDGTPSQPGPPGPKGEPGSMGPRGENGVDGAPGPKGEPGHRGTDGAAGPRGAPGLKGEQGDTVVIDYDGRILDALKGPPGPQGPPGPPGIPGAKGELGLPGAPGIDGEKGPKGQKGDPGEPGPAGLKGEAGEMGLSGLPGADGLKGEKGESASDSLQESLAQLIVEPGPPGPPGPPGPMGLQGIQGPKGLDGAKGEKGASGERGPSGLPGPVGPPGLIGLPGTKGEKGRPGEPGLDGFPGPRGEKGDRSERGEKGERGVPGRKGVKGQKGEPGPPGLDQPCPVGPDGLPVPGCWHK
T4 sequence (P26038 2-577 limits assumed): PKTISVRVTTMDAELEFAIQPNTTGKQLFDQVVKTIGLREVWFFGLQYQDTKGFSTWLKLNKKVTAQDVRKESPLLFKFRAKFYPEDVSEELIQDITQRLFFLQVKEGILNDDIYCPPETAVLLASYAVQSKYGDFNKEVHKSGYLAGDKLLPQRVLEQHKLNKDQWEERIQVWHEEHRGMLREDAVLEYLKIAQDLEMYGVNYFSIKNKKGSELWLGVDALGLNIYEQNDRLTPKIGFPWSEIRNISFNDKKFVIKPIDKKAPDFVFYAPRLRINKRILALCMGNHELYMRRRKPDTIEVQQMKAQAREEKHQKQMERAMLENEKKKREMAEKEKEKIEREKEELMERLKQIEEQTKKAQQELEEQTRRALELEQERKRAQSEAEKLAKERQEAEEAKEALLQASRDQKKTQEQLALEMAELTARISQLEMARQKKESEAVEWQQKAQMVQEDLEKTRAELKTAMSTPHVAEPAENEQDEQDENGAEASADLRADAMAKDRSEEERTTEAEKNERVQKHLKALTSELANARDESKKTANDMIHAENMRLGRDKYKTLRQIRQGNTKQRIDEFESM

B1: MH1, human IgG1 (antibody, V domains shown)
VH: QVQLVQSGAEVKKPGASVKVSCKASGYTFTDYYMNWVRQAPGQGLEWMGRIYPGSGNTYYAQKFQGRVTMTRDTSTSTVYMELSSLRSEDTAVYYCARGVYYYDYWGQGTLVTVSS
VL: DIQMTQSPSSLSASVGDRVTITCRASQGIRTNLAWFQQKPGKAPKSLIYAASSLQSGVPSRFSGSGSGTDFTLTISSLQPEDFATYYCQQYNSYPRTFGGGTKVEIK
notes: IgG1; also called IgG1-MH1
no binding (tested: 2 µg/ml): all assays above
